Among the data in article PMC3463842 are Kd values, retold here.

The target in the assay is ubiquitin^TAMRA (C-terminal TAMRA-labelled ubiquitin) (UniProt P0CG48). The experiment in a line: fluorescence polarisation. On the technique in general: In fluorescence polarisation assays a small probe gives low polarisation when free and higher when bound to something large.

HOIP^LDD C930A (domain or fragment) yielded a Kd of 734 µM.

In turn, HOIP^LDD (domain or fragment) yielded a Kd of 97 µM.

For orientation: Kd means the concentration at which binding is half-saturated. A high value points to lower affinity.
